Values quoted from earlier work, collected in patent US7759315B2, “Treatment of inflammatory conditions of the intestine” (CSL Behring AG, priority 2005, dated 2010).
Non-standard residues stand in square brackets, D forms with d. No end group written: not given here. Orn = NCCC[C@H](N)C(=O)O; Aib = CC(C)(N)C(=O)O

Target: T1, LCAT (Homo sapiens, UniProt P04180)
T1 sequence (P04180 25-440): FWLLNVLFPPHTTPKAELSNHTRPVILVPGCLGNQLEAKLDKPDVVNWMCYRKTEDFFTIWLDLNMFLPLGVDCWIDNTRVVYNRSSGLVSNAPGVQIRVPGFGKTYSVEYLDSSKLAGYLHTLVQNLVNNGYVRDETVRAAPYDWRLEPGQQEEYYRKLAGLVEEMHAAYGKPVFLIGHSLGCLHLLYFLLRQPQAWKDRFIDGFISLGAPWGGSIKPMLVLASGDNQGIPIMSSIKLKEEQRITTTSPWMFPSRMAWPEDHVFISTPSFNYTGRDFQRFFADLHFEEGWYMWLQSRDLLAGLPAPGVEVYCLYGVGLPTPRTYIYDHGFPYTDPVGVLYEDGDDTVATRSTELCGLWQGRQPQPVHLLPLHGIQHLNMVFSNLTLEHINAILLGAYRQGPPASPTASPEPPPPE

Row | Substance | ACTIVITY (%) LCAT [%]
1 | PVLDLFKELLQELLEALKQKLK [Peptide 11] | 72
2 | PVLDKFRELLNEXLEALKQKLK (PVLDKFRELLNE[Aib]LEALKQKLK) [Peptide 88] | 7
3 | NVLDLFRELLEELKQKLK* (not fully specified (N-terminus, C-terminus); printed as NVLDLFRELLEELKQKLK*) [Peptide 200] | 75
4 | PVLELFENLLEKLLDALQKKLK [Peptide 169] | 17
5 | PVLELFLNLLEKLLDALQKKLK [Peptide 166] | 22
6 | PVLDEFREKLNELXEALKQKLK (PVLDEFREKLNEL[Aib]EALKQKLK) [Peptide 71] | 11
7 | PVLDAFRELLEALLQLKK [Peptide 222] | 8
8 | PVLDLFRELLNELWQKLK [Peptide 219] | 24
9 | PVLDLFRELLNELLEALQKKLK [Peptide 24] | 53
10 | PVLDKFREKLNEXLEALKQKLK (PVLDKFREKLNE[Aib]LEALKQKLK; not fully specified (C-terminus)) [Peptide 74] | 10
11 | PVLELFENLGERLLDALQKKLK [Peptide 151] | 55
12 | PVLDEFRELYNEXLEALKQKLK (PVLDEFRELYNE[Aib]LEALKQKLK; not fully specified (C-terminus)) [Peptide 92] | 5
13 | PVLDLFRELGEELKQKLK* (not fully specified (N-terminus, C-terminus); printed as PVLDLFRELGEELKQKLK*) [Peptide 227] | 0
14 | PVLELFKELLEELKQKLK* (not fully specified (N-terminus, C-terminus); printed as PVLELFKELLEELKQKLK*) [Peptide 195] | 87
15 | GVLDLFRELLNELLEALKQKLKK [Peptide 2] | 105
16 | PVLDEFREKLNEXSEALKQKLK (PVLDEFREKLNE[Aib]SEALKQKLK; not fully specified (C-terminus)) [Peptide 112] | 0
17 | XVLDLFRELLNELLEALKQKLK ([Aib]VLDLFRELLNELLEALKQKLK; not fully specified (C-terminus)) [Peptide 32] | 33
18 | PVLELFKELLEELKQKLK [Peptide 216] | 35
19 | PVLDLFREGLEELKQKLK* (not fully specified (N-terminus, C-terminus); printed as PVLDLFREGLEELKQKLK*) [Peptide 228] | 0
20 | PVLDEFREKLNEELEWLKQKLK [Peptide 122] | 0
21 | PVLDLFREKLNELLEALKQKLK [Peptide 33] | 33
22 | PVLDEFREKLNEXLEALEQKLK (PVLDEFREKLNE[Aib]LEALEQKLK) [Peptide 118] | 0

Row | Substance | ACTIVITY (%) LCAT [%]
23 | PVLELFLNLWERLLDALQKKLK [Peptide 155] | 38
24 | PALELFKDLLEELRQKLR* (not fully specified (N-terminus, C-terminus); printed as PALELFKDLLEELRQKLR*) [Peptide 202] | 70
25 | PVLDLFRELGNELLEALKQKLK [Peptide 9] | 83
26 | PVLDLFRELLNLXLEALKEKLK (PVLDLFRELLNL[Aib]LEALKEKLK; not fully specified (C-terminus)) [Peptide 102] | 2
27 | PVLDEFRKKLNEXLEALKQKLK (PVLDEFRKKLNE[Aib]LEALKQKLK; not fully specified (C-terminus)) [Peptide 69] | 13
28 | pVLDLFRELLNEGLEALKQKLK ([dP]VLDLFRELLNEGLEALKQKLK; not fully specified (C-terminus); printed as pVLDLFRELLNEGLEALKQKLK) [Peptide 19] | 58
29 | GVLDLFRELLNELLEALKQKLK [Peptide 18] | 58
30 | DWFKAFYDKFFEKFKEFF [Peptide 247] | 3
31 | PVLELFLNLLERLLDAWQKKLK [Peptide 184] | 4
32 | PVLDLFRELLNELLEALKQKKK [Peptide 56] | 18
33 | GVLDLFRELLNEGLEALKQKLK [Peptide 13] | 67
34 | pvlelfenllerlldalgkklk ([dP][dV][dL][dE][dL][dF][dE][dN][dL][dL][dE][dR][dL][dL][dD][dA][dL][dQ][dK][dK][dL][dK]) [Peptide 174] | 13
35 | PELDEFREKLNEXLEALKQKLK (PELDEFREKLNE[Aib]LEALKQKLK; not fully specified (C-terminus)) [Peptide 117] | 0
36 | PHLDEFREKLNEXLEALKQKLK (PHLDEFREKLNE[Aib]LEALKQKLK; not fully specified (C-terminus)) [Peptide 116] | 0
37 | PALELFKDLLEEFRQRLK* (not fully specified (N-terminus, C-terminus); printed as PALELFKDLLEEFRQRLK*) [Peptide 213] | 42
38 | PVLELFENLLEKLLEALQKKLK [Peptide 182] | 7
39 | DVLDLFRELLEELKQKLK* (not fully specified (N-terminus, C-terminus); printed as DVLDLFRELLEELKQKLK*) [Peptide 221] | 12
40 | PVLDEFREKLNEXLKALKQKLK (PVLDEFREKLNE[Aib]LKALKQKLK; not fully specified (C-terminus)) [Peptide 93] | 5
41 | PVLDLFREKLNEELEALKQKLK [Peptide 106] | 0
42 | PVLDEFREKLNEXLWALKQKLK (PVLDEFREKLNE[Aib]LWALKQKLK; not fully specified (C-terminus)) [Peptide 89] | 6
43 | LVLDLFRELLNELLEALKQKLK [Peptide 59] | 17
44 | ~VLDEFREKLNEXLEALKQKLK (VLDEFREKLNE[Aib]LEALKQKLK; not fully specified (C-terminus); printed as ~VLDEFREKLNEXLEALKQKLK) [Peptide 65] | 15

Row | Substance | ACTIVITY (%) LCAT [%]
45 | PVLDEFREKLNEXMEALKQKLK (PVLDEFREKLNE[Aib]MEALKQKLK; not fully specified (C-terminus)) [Peptide 114] | 0
46 | PVLDEFREKLNELLEALKQKLK [Peptide 84] | 7
47 | PVLDLFREWLEELKQKLK* (not fully specified (N-terminus, C-terminus); printed as PVLDLFREWLEELKQKLK*) [Peptide 205] | 60
48 | PVLDEFREKLNEELEXLKQKLK (PVLDEFREKLNEELE[Aib]LKQKLK; not fully specified (C-terminus)) [Peptide 120] | 0
49 | AVLDLFRELLEELKQKLK* (not fully specified (N-terminus, C-terminus); printed as AVLDLFRELLEELKQKLK*) [Peptide 203] | 66
50 | PVLDEFREKLNEELEALWQKLK [Peptide 121] | 0
51 | PVLDEFREKLNEXXEALKQKLK (PVLDEFREKLNE[Aib][Aib]EALKQKLK; not fully specified (C-terminus)) [Peptide 110] | 0
52 | PVLDEFREKLNKXLEALKQKLK (PVLDEFREKLNK[Aib]LEALKQKLK; not fully specified (C-terminus)) [Peptide 77] | 9
53 | PVLDEFRELLKEXLEALKQKLK (PVLDEFRELLKE[Aib]LEALKQKLK; not fully specified (C-terminus)) [Peptide 68] | 14
54 | PVLELFENLLERLFDALQKKLK [Peptide 147] | 76
55 | ~VLDLFRELLNEGLEALKQKLK [Peptide 47] | 23
56 | PVLELFDNLLERLLDALQKKLK [Peptide 179] | 8
57 | PVLDLLRELLNELLEALKQKLK [Peptide 16] | 59
58 | PVLDLFOELLEELOQOLK* (PVLDLF[Orn]ELLEEL[Orn]Q[Orn]LK; not fully specified (N-terminus, C-terminus); printed as PVLDLFOELLEELOQOLK*) [Peptide 212] | 43
59 | PVFELFENLLERLLDALQKKLK [Peptide 152] | 50
60 | GVLDLFRELLEELKQKLK* (not fully specified (N-terminus, C-terminus); printed as GVLDLFRELLEELKQKLK*) [Peptide 198] | 80
61 | PKLDEFREKLNEXLEALKQKLK (PKLDEFREKLNE[Aib]LEALKQKLK; not fully specified (C-terminus)) [Peptide 115] | 0
62 | AVLELFENLLERLLDALQKKLK [Peptide 153] | 49
63 | pvLDLFRELLNELLEALKQKLK [Peptide 48] | 22
64 | PVLDEFRELLNELLEALKQKLK [Peptide 79] | 9
